Article PMC8934646, “The intrinsically disordered TSSC4 protein acts as a helicase inhibitor, placeholder and multi-interaction coordinator during snRNP assembly and recycling” (Nucleic Acids Research, 2022)

Biological target: T1, SNRNP200 helicase region (SNRNP200^HR) (human, UniProt O75643 395-2129)
T1 construct: human SNRNP200 helicase region, residues 395-2129
Test: SEC; competitive binding: 5 μM pre-formed SNRNP200^HR-FBP21^200–376 or SNRNP200^HR-C9ORF78 complex incubated with 5 μM GST-TSSC4 in 50 μl, 10 min on ice, then analytical SEC as in a1
Settings: both partners purified

T1 sequence (O75643 395-2129): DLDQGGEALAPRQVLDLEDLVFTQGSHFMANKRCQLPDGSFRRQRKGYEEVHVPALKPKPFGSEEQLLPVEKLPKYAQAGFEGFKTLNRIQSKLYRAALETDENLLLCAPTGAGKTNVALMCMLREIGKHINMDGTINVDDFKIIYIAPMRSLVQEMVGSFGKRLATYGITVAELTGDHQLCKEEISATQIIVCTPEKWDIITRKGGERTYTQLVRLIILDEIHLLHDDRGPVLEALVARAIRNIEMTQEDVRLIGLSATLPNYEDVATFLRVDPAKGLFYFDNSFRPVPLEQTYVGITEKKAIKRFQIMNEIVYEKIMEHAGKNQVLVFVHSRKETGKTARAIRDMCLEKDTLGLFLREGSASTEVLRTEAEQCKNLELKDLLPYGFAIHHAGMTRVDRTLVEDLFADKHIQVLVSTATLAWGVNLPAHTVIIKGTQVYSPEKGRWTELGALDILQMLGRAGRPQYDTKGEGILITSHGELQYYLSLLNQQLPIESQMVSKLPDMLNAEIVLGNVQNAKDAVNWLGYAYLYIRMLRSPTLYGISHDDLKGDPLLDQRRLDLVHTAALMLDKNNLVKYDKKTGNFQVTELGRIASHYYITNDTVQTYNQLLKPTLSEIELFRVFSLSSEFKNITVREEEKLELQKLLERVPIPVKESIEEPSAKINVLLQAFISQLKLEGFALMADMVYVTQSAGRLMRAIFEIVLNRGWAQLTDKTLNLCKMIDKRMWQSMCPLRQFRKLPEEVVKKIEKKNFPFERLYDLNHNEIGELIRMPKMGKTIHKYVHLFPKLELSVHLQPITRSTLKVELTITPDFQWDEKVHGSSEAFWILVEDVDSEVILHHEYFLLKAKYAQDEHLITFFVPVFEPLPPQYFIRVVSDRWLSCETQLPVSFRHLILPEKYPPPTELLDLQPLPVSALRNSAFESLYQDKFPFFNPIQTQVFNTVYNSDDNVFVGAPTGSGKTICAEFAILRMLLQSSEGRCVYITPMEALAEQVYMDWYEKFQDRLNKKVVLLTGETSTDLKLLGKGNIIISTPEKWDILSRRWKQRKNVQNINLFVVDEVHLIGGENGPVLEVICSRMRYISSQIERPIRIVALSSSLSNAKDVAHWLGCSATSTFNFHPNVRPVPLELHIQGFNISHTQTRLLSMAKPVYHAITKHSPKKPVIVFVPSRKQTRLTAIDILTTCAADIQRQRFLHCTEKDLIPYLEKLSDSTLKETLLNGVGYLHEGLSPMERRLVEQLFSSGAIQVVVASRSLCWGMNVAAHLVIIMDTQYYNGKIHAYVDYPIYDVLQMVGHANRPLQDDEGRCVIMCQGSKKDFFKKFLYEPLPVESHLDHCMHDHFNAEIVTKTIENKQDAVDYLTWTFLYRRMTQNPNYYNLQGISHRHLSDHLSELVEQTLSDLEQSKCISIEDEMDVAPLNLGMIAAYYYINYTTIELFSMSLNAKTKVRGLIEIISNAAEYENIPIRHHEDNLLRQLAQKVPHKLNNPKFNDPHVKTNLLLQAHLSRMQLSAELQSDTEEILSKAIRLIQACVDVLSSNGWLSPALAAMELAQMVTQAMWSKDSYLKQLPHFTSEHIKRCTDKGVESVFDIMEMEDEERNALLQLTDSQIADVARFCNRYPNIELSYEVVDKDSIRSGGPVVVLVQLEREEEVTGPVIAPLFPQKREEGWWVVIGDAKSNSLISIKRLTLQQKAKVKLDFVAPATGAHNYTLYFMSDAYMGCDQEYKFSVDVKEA

B1: C-terminal fragment of FBP21 (FBP21^200–376) (domain or fragment, human, UniProt O75554 200-376, looked up)
chain: HTSDLPSSKVNENSLGTLDESKSSDSHSDSDGEQEAEEGGVSTETEKPKIKFKEKNKNSDGGSDPETQKEKSIQKQNSLGSNEEKSKTLKKSNPYGEWQEIKQEVESHEEVDLELPSTENEYVSTSEADGGGEPKVVFKEKTVTSLGVMADGVAPVFKKRRTENGKSRNLRQRGDDQ
binding result: binds
